In test [1] the target is HLA-A*02:02. Briefly: IEDB peptide-MHC binding, purified MHC/competitive/radioactivity; ≥ and ≤ were set here for values at or beyond the usual limits of such assays.
Test [2] has as its target HLA-A*02:03. Described as above.
The target in test [3] is HLA-A*02:06. Described as above.
The target of test [4] is HLA-A*68:02. Briefly: IEDB peptide-MHC binding, cellular MHC/competitive/fluorescence; ≥ and ≤ were set here for values at or beyond the usual limits of such assays. As to conditions: source organism: Hepacivirus hominis.
Test [5] concerns the target HLA-A*68:02. Briefly: IEDB peptide-MHC binding, purified MHC/competitive/radioactivity; ≥ and ≤ were set here for values at or beyond the usual limits of such assays. As to conditions: source organism: Vaccinia virus WR.
In test [6] the target is HLA-A*02:01. Briefly: IEDB peptide-MHC binding, cellular MHC/competitive/fluorescence; ≥ and ≤ were set here for values at or beyond the usual limits of such assays. As to conditions: source organism: Vaccinia virus WR.
Setting [7] is: source organism: Hepacivirus hominis.
[8] abbreviates: source organism: Vaccinia virus WR.

As to MMMNWSPTT, the IC50 in test [1] (setting [7]) came out at 311 nM; in test [2] (setting [7]) it was 106 nM; in test [3] (setting [7]) it was 1230 nM; in test [4], 17900 nM.
Take NASKTINALV: the half-maximal inhibitory concentration (IC50) in test [1] (setting [8]) was 765 nM; in test [2] (setting [8]) it was 274 nM; in test [3] (setting [8]) it was 3220 nM; in test [5] it was 21 nM; in test [6], 8460 nM.
For the sequence NIKISLNEIL, the IC50 in test [1] (setting [8]) came out at 705 nM; in test [2] (setting [8]), 1390 nM; in test [3] (setting [8]) it was 557 nM; in test [5], 1610 nM; in test [6], 9630 nM.
Regarding NITTLLNET, the IC50 came out at 1300 nM in test [1] (setting [8]); 2900 nM in test [2] (setting [8]); 2310 nM in test [3] (setting [8]); 1540 nM in test [5]; 39200 nM in test [6].
As for NITTLLNETA, the IC50 amounted to 218 nM in test [1] (setting [8]); 106 nM in test [2] (setting [8]); 1130 nM in test [3] (setting [8]); 1720 nM in test [5]; 5680 nM in test [6].
In the same order, the values of PASISSVLTI are 1360 nM, 83 nM, 1550 nM, 4510 nM and 5910 nM.
In the same order, the values of PLHIVCSKT are 997 nM, 2150 nM, 3890 nM, 1880 nM and 7940 nM.
On to RQDYRRSINV, for which the IC50 in test [1] (setting [8]) stood at 1010 nM; in test [2] (setting [8]) it was 375 nM; in test [3] (setting [8]), 2220 nM; in test [5], 3970 nM; in test [6] it was 10200 nM.
For the sequence SAEVERLMEL, the IC50 in test [1] (setting [8]) came out at 1280 nM; in test [2] (setting [8]) it was 2500 nM; in test [3] (setting [8]), 1250 nM; in test [5] it was 2640 nM; in test [6], 7910 nM.
Take SAVFKDSFL: the IC50 in test [1] (setting [8]) turned out to be 231 nM; in test [2] (setting [8]), 536 nM; in test [3] (setting [8]), 1140 nM; in test [5] it was 110 nM; in test [6], 6060 nM.
On to SIAMLKSKNI, for which the IC50 in test [1] (setting [8]) came to 1090 nM; in test [2] (setting [8]) it was 55 nM; in test [3] (setting [8]), 259 nM; in test [5] it was 2100 nM; in test [6] it was 14000 nM.
In the same order, the values of SIMSMMNIT are 4970 nM, 681 nM, 1760 nM, 2370 nM and 7140 nM.
On to SIRCVKYLL, for which the IC50 amounted to 107 nM in test [1] (setting [8]); 56 nM in test [2] (setting [8]); 2880 nM in test [3] (setting [8]); 244 nM in test [5]; 7820 nM in test [6].
As to STAEQLSKYV, the IC50 was 1060 nM in test [1] (setting [8]); 1870 nM in test [2] (setting [8]); 697 nM in test [3] (setting [8]); 28 nM in test [5]; 8210 nM in test [6].
As to STFNMWREIL, the half-maximal inhibitory concentration (IC50) in test [1] (setting [8]) was found to be 3120 nM; in test [2] (setting [8]), 907 nM; in test [3] (setting [8]), 3360 nM; in test [5], 67 nM; in test [6] it was 6000 nM.
Turning to TITTFIPISA, the IC50 was 4060 nM in test [1] (setting [8]); 176 nM in test [2] (setting [8]); 4840 nM in test [3] (setting [8]); 304 nM in test [5]; 9690 nM in test [6].
Consider TIVSRSSRGV, for which the IC50 in test [1] (setting [8]) was 4700 nM; in test [2] (setting [8]) it was 11 nM; in test [3] (setting [8]) it was 3740 nM; in test [5], 1260 nM; in test [6], 11300 nM.
In the same order, the values of TTNNLLEQL are 122 nM, 1420 nM, 3040 nM, 48 nM and 40600 nM.
YAGTIKESL: the IC50 was determined as 2070 nM in test [1] (setting [8]); 2490 nM in test [2] (setting [8]); 3300 nM in test [3] (setting [8]); 361 nM in test [5]; 21100 nM in test [6].
For the sequence YAGTIKESLL, the IC50 in test [1] (setting [8]) came to 1020 nM; in test [2] (setting [8]), 4040 nM; in test [3] (setting [8]), 1760 nM; in test [5], 1910 nM; in test [6], 21900 nM.
As to YIESKAKQL, the IC50 in test [1] (setting [8]) was found to be 144 nM; in test [2] (setting [8]), 439 nM; in test [3] (setting [8]) it was 2990 nM; in test [5] it was 1340 nM; in test [6], 9620 nM.
Regarding YTFAISYCRA, the half-maximal inhibitory concentration (IC50) in test [1] (setting [8]) is 325 nM; in test [2] (setting [8]) it was 38 nM; in test [3] (setting [8]) it was 37 nM; in test [5] it was 4 nM; in test [6], 10300 nM.
As for YVIRHVDGKI, the IC50 came out at 621 nM in test [1] (setting [8]); 114 nM in test [2] (setting [8]); 522 nM in test [3] (setting [8]); 22 nM in test [5]; 8590 nM in test [6].

The values are drawn from the Immune Epitope Database (IEDB).
